Assay results published in US20220204611A1 (Amgen, published 2022).
Blank lines part the entries; values can stand above or below the binder they belong to.

Columns and labels:
[1] = molecular target: T1, human TREM2 (human, UniProt Q9NZC2 19-174, limits assumed); assay: yeast-displayed Fab FACS, 1st screen 110 nM
T1 sequence: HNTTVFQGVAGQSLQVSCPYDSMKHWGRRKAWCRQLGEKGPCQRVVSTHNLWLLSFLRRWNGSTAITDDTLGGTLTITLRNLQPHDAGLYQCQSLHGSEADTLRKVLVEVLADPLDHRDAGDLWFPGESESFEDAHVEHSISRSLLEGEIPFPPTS

[2] = molecular target: T1, human TREM2; assay: yeast-displayed Fab FACS, 2nd screen 100 nM

- binding signal fold over 6E7 parental [1]: 0.79 fold
- binding signal fold over 6E7 parental [2]: 0.72 fold
B2: V30 (Fab, V domains shown)
VH: EVQLVQSGAEVKKPGESLKISCKGSGSSFTSYWIAWVRQMPGKGLEWMGIIYPGDSDTRYSPSFQGQVTISADKSISTAYLQWSSLKASDTAMYFCARQRTFYYDSSDYFDYWGQGTLVTVSS
VL: DIQMTQSPSSVSASVGDRVTITCRASQGISSWLAWYQQKPGKAPKLLIYAASSLQNGVPSRFSGSGSGTDFTLTISSLQPEDFATYFCQQADSFPRTFGQGTKLEIK

- binding signal fold over 6E7 parental [1]: 0.18 fold
- binding signal fold over 6E7 parental [2]: 0.52 fold
B5: V20 (Fab, V domains shown)
VH: EVQLVQSGAEVKKPGESLKISCKGSGYSFTSYWIAWVRQMPGKGLEWMGRIYPGDSDTRYSPSFQGQVTISADKSISTAYLQWSSLKASDTAMYFCARQRTFYYDSSDYFDYWGQGTLVTVSS
VL: DIQMTQSPSSVSASVGDRVTITCRASQGISSWLAWYQQKPGKAPKLLIYAASSLQNGVPSRFSGSGSGTDFTLTISSLQPEDFATYFCQQADSFPRTFGQGTKLEIK

- binding signal fold over 6E7 parental [1]: 0.3 fold
- binding signal fold over 6E7 parental [2]: 0.71 fold
B6: V22 (Fab, V domains shown)
VH: EVQLVQSGAEVKKPGESLKISCKGSGYSFTSYWIAWVRQMPGKGLEWMGIIYPGDSDTRYSPSFQGQVTISADKSISTAYLQWSSLKASDTAMYFCARQRTFYYDSSDYFDYWGQGTLVTVSS
VL: DIQMTQSPSSVSASVGDRVTITCRASQGISSWLAWYQQKPGKAPKLLIYRASSLQNGVPSRFSGSGSGTDFTLTISSLQPEDFATYFCQQADSFPRTFGQGTKLEIK

- binding signal fold over 6E7 parental [1]: 0.4 fold
- binding signal fold over 6E7 parental [2]: 0.4 fold
B7: V23 (Fab, V domains shown)
VH: EVQLVQSGAEVKKPGESLKISCKGSGYSFTSYWIAWVRQMPGKGLEWMGIIYPGDSDTRYSPSFQGQVTISADKSISTAYLQWSSLKASDTAMYFCARQRTFYYDSSDYFDYWGQGTLVTVSS
VL: DIQMTQSPSSVSASVGDRVTITCRASQGISSWLAWYQQKPGKAPKLLIYAASSLQNGVPSRFSGSGSGTDFTLTISSLQPEDFATYFCQQADSFPLTFGQGTKLEIK

- binding signal fold over 6E7 parental [1]: 0.76 fold
- binding signal fold over 6E7 parental [2]: 0.68 fold
B13: V21 (Fab, V domains shown)
VH: EVQLVQSGAEVKKPGESLKISCKGSGYSFTSYWIAWVRQMPGKGLEWMGIIYPGDSDTRYSPSFQGQVTISADKSISTAYLQWSSLKASDTAMYFCARQRTFYYDSSDFFDYWGQGTLVTVSS
VL: DIQMTQSPSSVSASVGDRVTITCRASQGISSWLAWYQQKPGKAPKLLIYAASSLQNGVPSRFSGSGSGTDFTLTISSLQPEDFATYFCQQADSFPRTFGQGTKLEIK

Continued, binder first:

B1: V6 (Fab, V domains shown)
VH: EVQLVQSGAEVKKPGESLKISCKGSGYSFTSMWIAWVRQMPGKGLEWMGIIYPGDSDTRYSPSFQGQVTISADKSISTAYLQWSSLKASDTAMYFCARQRTFYYDSSDYFDYWGQGTLVTVSS
VL: DIQMTQSPSSVSASVGDRVTITCRASQGISSWLAWYQQKPGKAPKLLIYAASSLQNGVPSRFSGSGSGTDFTLTISSLQPEDFATYFCQQADSFPRTFGQGTKLEIK
- binding signal fold over 6E7 parental [1]: 0.2 fold
- binding signal fold over 6E7 parental [2]: 0.56 fold

B3: V18 (Fab, V domains shown)
VH: EVQLVQSGAEVKKPGESLKISCKGSGYSFTSYHIAWVRQMPGKGLEWMGIIYPGDSDTRYSPSFQGQVTISADKSISTAYLQWSSLKASDTAMYFCARQRTFYYDSSDYFDYWGQGTLVTVSS
VL: DIQMTQSPSSVSASVGDRVTITCRASQGISSWLAWYQQKPGKAPKLLIYAASSLQNGVPSRFSGSGSGTDFTLTISSLQPEDFATYFCQQADSFPRTFGQGTKLEIK
- binding signal fold over 6E7 parental [1]: 0.17 fold
- binding signal fold over 6E7 parental [2]: 0.42 fold

B4: V11 (Fab, V domains shown)
VH: EVQLVQSGAEVKKPGESLKISCKGSGYSFTSYWIAWVRQMPGKGLEWMGIIYPGDSDTRYSPSFQGQVTISADKSISTAYLQWSSLKASDTAMYFCARQRTFYYDSSDYFDYWGQGTLVTVSS
VL: DIQMTQSPSSVSASVGDRVTITCRASQGISSWLAWYQQKPGKAPKLLIYAASSLQNGVPSRFSGSGSGTDFTLTISSLQPEDFATYFCQQAASFPRTFGQGTKLEIK
- binding signal fold over 6E7 parental [1]: 0.79 fold
- binding signal fold over 6E7 parental [2]: 0.42 fold

B8: V19 (Fab, V domains shown)
VH: EVQLVQSGAEVKKPGESLKISCKGSGYSFTSSWIAWVRQMPGKGLEWMGIIYPGDSDTRYSPSFQGQVTISADKSISTAYLQWSSLKASDTAMYFCARQRTFYYDSSDYFDYWGQGTLVTVSS
VL: DIQMTQSPSSVSASVGDRVTITCRASQGISSWLAWYQQKPGKAPKLLIYAASSLQNGVPSRFSGSGSGTDFTLTISSLQPEDFATYFCQQADSFPRTFGQGTKLEIK
- binding signal fold over 6E7 parental [1]: 0.59 fold
- binding signal fold over 6E7 parental [2]: 0.48 fold

B9: V10 (Fab, V domains shown)
VH: EVQLVQSGAEVKKPGESLKISCKGSGYSFTSYWIAWVRQMPGKGLEWMGIIYPGDSDTRYSPSFQGQVTISADKSISTAYLQWSSLKASDTAMYFCARQRTFYYDSSDYFDYWGQGTLVTVSS
VL: DIQMTQSPSSVSASVGDRVTITCRASQGISSWLAWYQQKPGKAPKLLIYSASSLQNGVPSRFSGSGSGTDFTLTISSLQPEDFATYFCQQADSFPRTFGQGTKLEIK
- binding signal fold over 6E7 parental [1]: 0.76 fold
- binding signal fold over 6E7 parental [2]: 0.7 fold

B10: V7 (Fab, V domains shown)
VH: EVQLVQSGAEVKKPGESLKISCKGSGYSFTSEWIAWVRQMPGKGLEWMGIIYPGDSDTRYSPSFQGQVTISADKSISTAYLQWSSLKASDTAMYFCARQRTFYYDSSDYFDYWGQGTLVTVSS
VL: DIQMTQSPSSVSASVGDRVTITCRASQGISSWLAWYQQKPGKAPKLLIYAASSLQNGVPSRFSGSGSGTDFTLTISSLQPEDFATYFCQQADSFPRTFGQGTKLEIK
- binding signal fold over 6E7 parental [1]: 0.11 fold
- binding signal fold over 6E7 parental [2]: 0.32 fold

B11: V9 (Fab, V domains shown)
VH: EVQLVQSGAEVKKPGESLKISCKGSGYSFTSYWIAWVRQMPGKGLEWMGIIYPGDSDTRYSPSFQGQVTISADKSISTAYLQWSSLKASDTAMYFCARQRGFYYDSSDYFDYWGQGTLVTVSS
VL: DIQMTQSPSSVSASVGDRVTITCRASQGISSWLAWYQQKPGKAPKLLIYAASSLQNGVPSRFSGSGSGTDFTLTISSLQPEDFATYFCQQADSFPRTFGQGTKLEIK
- binding signal fold over 6E7 parental [1]: 0.67 fold
- binding signal fold over 6E7 parental [2]: 0.54 fold

B12: V8 (Fab, V domains shown)
VH: EVQLVQSGAEVKKPGESLKISCKGSGYSFTSYWIAWVRQMPGKGLEWMGIIYPGDSDTKYSPSFQGQVTISADKSISTAYLQWSSLKASDTAMYFCARQRTFYYDSSDYFDYWGQGTLVTVSS
VL: DIQMTQSPSSVSASVGDRVTITCRASQGISSWLAWYQQKPGKAPKLLIYAASSLQNGVPSRFSGSGSGTDFTLTISSLQPEDFATYFCQQADSFPRTFGQGTKLEIK
- binding signal fold over 6E7 parental [1]: 0.28 fold
- binding signal fold over 6E7 parental [2]: 0.77 fold
